The test system of data set [1] is PvRAS4. The data set is described as follows: UPLC of product formation, nonlinear regression. The class given is biochemical, Prunella vulgaris. To be noted: varied acyl donor, 2 mM DHPL; 100 mM Tris-HCl pH 7.0, 2 mM DTT, 4 mM MgCl2, 10% glycerol, 25 °C. The source says: UPLC of product formation, nonlinear regression on PvRAS4
In data set [2] the test system is PvRAS4. The experiment in a line: UPLC of acceptor consumption, nonlinear regression. It counts as biochemical, Prunella vulgaris. To be noted: varied acyl acceptor, 2 mM p-coumaroyl-CoA; 100 mM Tris-HCl pH 7.0, 2 mM DTT, 4 mM MgCl2, 10% glycerol, 25 °C. The text has this:
UPLC of acceptor consumption, nonlinear regression on PvRAS4

Substrate in the data set “purified protein”: O=C(O)[C@H](O)Cc1ccc(O)c(O)c1
The data set is described as follows: purified protein. The conditions noted are these: varied acyl acceptor, 2 mM p-coumaroyl-CoA, 100 mM Tris-HCl pH 7.0, 2 mM DTT, 4 mM MgCl2, 10% glycerol, 25 °C.

Substrate in data set [3]: O=C(O)C(O)Cc1ccc(O)cc1
The experiment in a line: UPLC of acceptor consumption, nonlinear regression. The class given is biochemical, Prunella vulgaris. The conditions noted are these: varied acyl acceptor, 2 mM p-coumaroyl-CoA, 100 mM Tris-HCl pH 7.0, 2 mM DTT, 4 mM MgCl2, 10% glycerol, 25 °C.

Substrate in data set [4]: CC(C)(COP(=O)(O)OP(=O)(O)OC[C@H]1O[C@@H](n2cnc3c(N)ncnc32)[C@H](O)[C@@H]1OP(=O)(O)O)[C@@H](O)C(=O)NCCC(=O)NCCSC(=O)/C=C/c1ccc(O)cc1
The experiment in a line: UPLC of product formation, nonlinear regression. To be noted: varied acyl donor, 2 mM pHPL, 100 mM Tris-HCl pH 7.0, 2 mM DTT, 4 mM MgCl2, 10% glycerol, 25 °C. The class given is biochemical, Prunella vulgaris.

Substrate in data set [5]: CC(C)(COP(=O)(O)OP(=O)(O)OC[C@H]1O[C@@H](n2cnc3c(N)ncnc32)[C@H](O)[C@@H]1OP(=O)(O)O)[C@@H](O)C(=O)NCCC(=O)NCCSC(=O)/C=C/c1ccc(O)c(O)c1
The experiment in a line: UPLC of product formation, nonlinear regression. It counts as biochemical, Prunella vulgaris. The conditions noted are these: varied acyl donor, 2 mM DHPL, 100 mM Tris-HCl pH 7.0, 2 mM DTT, 4 mM MgCl2, 10% glycerol, 25 °C.

Broadly, the Km is the substrate concentration at which the rate is half of its maximum. With `CC(C)(COP(=O)(O)OP(=O)(O)OC[C@H]1O[C@@H](n2cnc3c(N)ncnc32)[C@H](O)[C@@H]1OP(=O)(O)O)[C@@H](O)C(=O)NCCC(=O)NCCSC(=O)/C=C/c1ccc(O)cc1` [p-coumaroyl-CoA], in the data set on PvRAS4 [1], the Michaelis constant (Km) was 218 ± 10.3 µM.

Take `O=C(O)[C@H](O)Cc1ccc(O)c(O)c1` [DHPL]: the Michaelis constant (Km) in the data set with PvRAS4 [2] came out at 227 ± 17.5 µM.

Consider `O=C(O)C(O)Cc1ccc(O)cc1` (stereo not shown) [pHPL], for which the Michaelis-Menten constant (Km) in the data set with PvRAS4 [2] came to 228 ± 16.6 µM.

B1: PvRAS3 (Prunella vulgaris) (protein)
chain: MKIEVKESTMVKPAAETPTGGLWISNLDLLSPANYHTLSVHFYRHDGSDNFFEAAPLKEALSRALVEFYPYAGRLKLNGKRLEIDCNGEGLLLVEAESDGTLEELGDFAPRPDLNLIPKVDYSKGISSYPLMLFQITRFKCGGVGLGVANEHHLSDGVSALHFINTWCHLARGVPAPSPAPVFDRTALSARSPPKVEFTHPEFQPPPTLPTPLEHTDIAYAKLKLSRDQLNALKAKCKSPATANGQENGKPARPYSTFEVLAGHIWRCVCAARGLPAEQETKLHIPFDGRAKLQLPAGFFGNAIFFATPIATCGEVEANSLSYAVRRVGDAIGRLDEEYLRSSVDFLELQDDISKLAQGAHSFRCPNLWVISWVRLPIYEPDFGWGKAVYMGPWAAPFEGKSYLLPNPDNDGSLFVAITLHTQHMDRFQNFFYDI
The term Vmax denotes the rate approached at saturating substrate. For orientation: kcat means the number of substrate molecules converted per active site and unit of time at saturation. One may read the kcat/Km as the second-order rate constant that governs catalysis at low substrate concentration. Take B1: in “purified protein”, the Michaelis-Menten constant (Km) amounted to 41.7 ± 1.2 µM, the Vmax worked out at 18.2 µmol/min/mg, the turnover number (kcat) worked out at 30.5 s⁻¹ and the kcat/Km was determined as 700000 M⁻¹ s⁻¹. In data set [3], the Km was determined as 32.1 ± 0.7 µM, the maximum rate (Vmax) was found to be 19.4 µmol/min/mg, the kcat came out at 33.3 ± 2.3 s⁻¹ and the specificity constant (kcat/Km) was determined as 1e+06 M⁻¹ s⁻¹. Besides, in data set [4], the Km is listed as 30.6 ± 1.2 µM, the Vmax was 18.7 µmol/min/mg, the kcat stood at 34.3 ± 2.2 s⁻¹ and the kcat/Km stood at 1.1e+06 M⁻¹ s⁻¹. In data set [5], the Michaelis constant (Km) came to 173.2 ± 9.0 µM, the Vmax turned out to be 9.95 µmol/min/mg, the turnover number (kcat) stood at 14.1 ± 1 s⁻¹ and the kcat/Km was determined as 80000 M⁻¹ s⁻¹.

(Values after article PMC11094360, “Systematic characterization of gene families and functional analysis of PvRAS3 and PvRAS4 involved in rosmarinic acid biosynthesis in Prunella vulgaris” (Frontiers in Plant Science, 2024).)
